Test results: patent US20250339531A1, “DUX4 POLYPEPTIDES AND NUCLEIC ACIDS FOR TREATING INFLAMMATORY AND AUTOIMMUNE CONDITIONS” (Fred Hutchinson Cancer Center, priority 2021, published 2025)

How the values were obtained:
[1] = test system: interferon-stimulated genes IFIH1, ISG20, CXCL9, and CD74; test: IFNG induction of interferon-stimulated genes, RT-qPCR in MB135 cells with doxycycline-inducible transgenes; format: cell-based, human; conditions: MB135 cells, doxycycline-induced transgene, continuous protocol, IFNG 16 h
Description: All myoblast experiments were conducted in immortalized MB135 or MB200 myoblast cell lines (isolated from a control or FSHD2 subject, respectively cultured in Ham's F-10 Nutrient Mix (Gibco) supplemented with 15% fetal bovine serum (Hyclone), 100 U/100 μg/ml penicillin/streptomycin (Gibco), 1 μM dexamethasone (Sigma), and 10 ng/ml recombinant human basic fibroblast growth factor (PeproTech). To differentiate the myoblasts to myotubes, media was changed to DMEM supplemented with 10 μg/ml insulin (Sigma) and 10 μg/ml transferrin (Sigma). Cell lines containing doxycycline-inducible transgenes were additionally cultured with 2 μg/mL puromycin (Sigma). Transgenes were induced with 1 μg/mL of doxycycline (Sigma) for 4 hours prior to other treatments for a total of 20 hrs. The Kitra-SRS cells (RRID:CVCL_YI69) were provided by Dr. H. Otani and Osaka University (Nakai et al., 2019) and were cultured in DMEM supplemented with 10% fetal bovine serum (Hyclone) and 100 U/100 μg/ml penicillin/streptomycin (Gibco). Biological replicates consisted of independent but parallel experiments, such as simultaneously stimulating three cell culture plates with IFNγ. Technical replicates consisted of repeat measurements of the same biological sample, such as loading the same biological sample in triplicate for analysis by RT-qPCR.
Myoblasts were transfected with either (final concentrations) 10 μM 2′,3′-cGAMP (Sigma Aldrich), 2 μg/mL poly(I:C) (Invitrogen), or 1 μg/mL 3′ppp-dsRNA RIG-I ligand (Dan Stetson Lab, UW) using Lipofectamine 2000 according to manufacturer's protocol, or were stimulated with 1000U IFNβ (PeproTech) or 200 ng/ml IFNγ (R+D Systems) by addition directly to cell culture medium. After 16 hours of immune stimulation, RNA was collected from cells using the NucleoSpin RNA Kit (Macherey-Nagel) according to manufacturer's instructions. RNA samples were quantified by nanodrop and 1 μg of RNA per sample was treated with DNase I Amplification Grade (Thermo Fisher), and then synthesized into cDNA using the Superscript IV First-Strand Synthesis System, including oligo dT primers (Invitrogen). qPCR was run in 384-well plates on an Applied Biosystems QuantStudio 6 Flex Real-Time PCR System (ABI) and analyzed in Microsoft Excel.

pSTAT1-Y701, pSTAT1-S727 = biological target: T1, pSTAT1-Y701, pSTAT1-S727 (Homo sapiens, UniProt P42224); test: Western analysis of whole-cell extracts for STAT1 and pSTAT1; format: cell-based; conditions: doxycycline and IFNG
T1 construct: co-localization of endogenous STAT1 and pSTAT1 701 with the iDUX4-CTD; endogenous in cells; host or cells: MB135 human myoblasts carrying doxycycline-inducible DUX4 / DUX4-CTD / DUXB / Dux transgenes, with or without IFNG
T1 sequence (P42224 1-750): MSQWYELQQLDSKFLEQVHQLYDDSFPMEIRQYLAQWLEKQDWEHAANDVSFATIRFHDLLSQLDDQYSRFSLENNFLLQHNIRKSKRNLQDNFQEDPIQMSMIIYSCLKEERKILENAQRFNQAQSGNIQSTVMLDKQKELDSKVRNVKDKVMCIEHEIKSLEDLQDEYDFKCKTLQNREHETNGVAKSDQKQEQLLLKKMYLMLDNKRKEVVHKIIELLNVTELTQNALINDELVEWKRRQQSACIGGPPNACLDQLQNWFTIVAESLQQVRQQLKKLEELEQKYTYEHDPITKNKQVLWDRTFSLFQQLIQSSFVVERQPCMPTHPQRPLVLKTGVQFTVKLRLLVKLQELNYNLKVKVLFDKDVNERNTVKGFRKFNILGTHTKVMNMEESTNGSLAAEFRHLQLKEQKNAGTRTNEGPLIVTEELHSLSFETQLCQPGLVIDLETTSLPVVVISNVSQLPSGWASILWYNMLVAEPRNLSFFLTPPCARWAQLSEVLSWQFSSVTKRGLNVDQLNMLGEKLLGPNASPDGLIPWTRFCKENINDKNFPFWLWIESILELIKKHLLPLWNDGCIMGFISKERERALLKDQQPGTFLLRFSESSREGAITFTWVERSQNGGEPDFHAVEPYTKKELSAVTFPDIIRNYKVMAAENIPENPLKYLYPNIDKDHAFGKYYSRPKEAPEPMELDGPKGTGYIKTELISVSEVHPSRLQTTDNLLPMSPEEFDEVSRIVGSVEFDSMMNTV
Description: Protein samples were harvested in RIPA buffer [150 mM NaCl, 1% NP-40, 0.5% Na-deocycholate, 1% SDS, 25 mM Tris-HCl pH7.4] supplemented with protease and phosphatase inhibitor tablets (Pierce), followed by sonication in Diagenode Bioruptor. Lysate was cleared by centrifugation at 16000×g and quantified using a Pierce BCA assay (Thermo Fisher Scientific). Samples were run on NuPAGE precast polyacrylamide gels (Invitrogen) and transferred to PVDF membrane. Membranes were blocked in PBS containing 0.1% Tween-20 and 5% non-fat dry milk before overnight incubation at 4° C. with primary antibodies (see resource table for a list of antibodies used in this study). Membranes were incubated with horseradish peroxidase-conjugated secondary antibodies for 1 hour at room temperature and SuperSignal chemiluminescent substrate (Thermo Scientific) was used for detection on film with a Mini-medical 90 processor. Membranes were stripped with Restore Western Blot Stripping Buffer (Pierce).

B1: DUXB: related factor in the DUX family, doxycycline-inducible 3×FLAG-NLS-DUXB control, SEQ ID NO:106 (protein)
chain: DYKDHDGDYKDHDIDYKDDDDKPPKRMRREPKKKRKVNLEGTSGGILQKEFWRNRIQYNQSQKDILQSWFQHDPFPDKAAREQLAKEIGVPESNIQVWFKNYRVKQRKLDYKCFSEKDQTQGHDQSQHLTQEYLPKEARQKQTFITWTQKNRLVQAFERNPFPDIATRKKLAEQTGLQESRIQMWFQKQRSLYLKKSRMEPMNLLVDDPNERPDATVGWHPINLFLPTDSSHYFSCSHSSSGHETLPPVLPSTQAPWDPFRFHVSQGPNVMIMQPTQAVQEGEKSDQPLIIPNHLLTLPILTKDLDTPTPFWLQYQEEHQNHKEHSGSGVPQVKSHSQPEPEHREQQPLNLGQFDISNILQRWDEICQALLAEWEPLKGTH
modifications: 3xFLAG-NLS tag
suppression of IFNG induction of ISGs (IFIH1, ISG20, CXCL9, CD74) [1]: did not suppress ISG induction by IFNG | abundance of pSTAT1 and total STAT1 (pSTAT1-Y701, pSTAT1-S727): did not increase either form of phosphorylated STAT1
